Source: publication PMC7870876

Target: Synaptophysin (rat (endogenous in rat brain synaptic vesicles)), P07825
Experiment: cross-linking; BS3 cross-linked synaptic vesicle proteins, gel electrophoresis, western blot with antibodies against Synaptobrevin-2 and Synaptophysin
Conditions: remark: other sources report otherwise

B1: Synaptophysin, P07825 1-307 (natural protein)
chain: MDVVNQLVAGGQFRVVKEPLGFVKVLQWVFAIFAFATCGSYTGELRLSVECANKTESALNIEVEFEYPFRLHQVYFDAPSCVKGGTTKIFLVGDYSSSAEFFVTVAVFAFLYSMGALATYIFLQNKYRENNKGPMMDFLATAVFAFMWLVSSSAWAKGLSDVKMATDPENIIKEMPMCRQTGNTCKELRDPVTSGLNTSVVFGFLNLVLWVGNLWFVFKETGWAAPFMRAPPGAPEKQPAPGDAYGDAGYGQGPGGYGPQDSYGPQGGYQPDYGQPASGGGGYGPQGDYGQQGYGQQGAPTSFSNQM
For B1, which stoichiometry N is on record?
Its stoichiometry N is 2.
